One assay addresses T1, mouse CD86 (mouse, UniProt P42082 24-244, limits assumed).
T1 sequence (looked up): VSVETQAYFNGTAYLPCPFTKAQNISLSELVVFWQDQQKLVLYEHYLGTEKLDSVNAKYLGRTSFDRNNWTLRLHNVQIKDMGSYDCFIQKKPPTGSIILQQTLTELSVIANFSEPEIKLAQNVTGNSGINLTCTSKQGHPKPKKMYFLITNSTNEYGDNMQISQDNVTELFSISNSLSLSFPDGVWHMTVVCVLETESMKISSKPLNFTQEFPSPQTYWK
Description: yeast-display flow cytometry, Normalized FACS Bound.

For another assay, the target named is T2, human CD86 (human, UniProt P42081 24-247, limits assumed).
T2 construct: constructs not described; also called recombinant human CD86 fused with human Fc; CD86-Fc-Bio
T2 sequence (looked up): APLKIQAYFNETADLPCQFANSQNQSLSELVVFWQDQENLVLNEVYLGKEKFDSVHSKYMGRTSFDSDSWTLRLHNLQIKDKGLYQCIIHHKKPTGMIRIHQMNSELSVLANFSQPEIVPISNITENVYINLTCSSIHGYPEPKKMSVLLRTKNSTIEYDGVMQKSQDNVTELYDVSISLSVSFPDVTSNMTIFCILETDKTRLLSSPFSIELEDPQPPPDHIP
The description is as above.

In the next assay the target is T3, human CD80 (human, UniProt P33681 35-242, limits assumed).
T3 construct: constructs not described; also called biotinylated CD80; CD80-Fc-Bio
T3 sequence (looked up): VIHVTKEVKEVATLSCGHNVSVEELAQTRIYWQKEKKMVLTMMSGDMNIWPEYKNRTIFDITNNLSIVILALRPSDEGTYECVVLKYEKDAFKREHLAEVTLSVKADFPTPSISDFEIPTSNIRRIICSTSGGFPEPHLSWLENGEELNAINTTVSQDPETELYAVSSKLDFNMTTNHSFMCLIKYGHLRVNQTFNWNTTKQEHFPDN
The assay is described as above.

For assay [1], the target named is T4, recombinant human CTLA4 fused with human Fc and His tag (human, UniProt P16410 36-162, limits assumed).
T4 construct: Coated in the CD80 ELISA, biotinylated and in solution in the CD86 ELISA; also called biotinylated human CTLA4 fused with human FC and His tag
T4 sequence (looked up): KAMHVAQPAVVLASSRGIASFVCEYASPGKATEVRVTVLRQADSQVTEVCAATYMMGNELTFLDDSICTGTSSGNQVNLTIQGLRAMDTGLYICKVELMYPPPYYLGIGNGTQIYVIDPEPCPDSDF
Description: competition ELISA: plate-bound human CTLA4-Fc-His, biotinylated CD80 as blocked ligand. The method, then:
Antibodies were then tested for their ability to block binding of CTLA4 to its cognate ligands CD80 and CD86 by ELISA. […] Plates were blocked with PBS supplemented with 2% (w/v) skim milk at 37° C. for 1 hour. […] Plates were washed four times, and 100 μL HRP-neutravidin (1:1000) was added to each well and incubated at 37° C. for 1 hour. Plates were washed as previously described, and 50 μL TMB substrate solution was added and incubated at room temperature for 5 minutes before the reaction was stopped by 50 μL sulfate acid (2M).

Assay [2] deals with T5, full-length human CTLA4 expressed on cells (human, UniProt P16410 36-223).
T5 construct: whole, on cells; also called HEK293F/hCTLA-4 cells; HEK293F/hCTLA4 cells
T5 sequence (looked up): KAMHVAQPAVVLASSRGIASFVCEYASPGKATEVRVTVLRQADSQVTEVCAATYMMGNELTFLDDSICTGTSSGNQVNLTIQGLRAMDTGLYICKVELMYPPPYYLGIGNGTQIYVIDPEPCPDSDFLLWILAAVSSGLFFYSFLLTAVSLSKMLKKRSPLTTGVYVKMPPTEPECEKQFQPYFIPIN
As to the kind of experiment: flow cytometry blocking: HEK293F cells with human CTLA4, 100 nM antibody, then 100 nM CD86-Fc-Bio (blocked ligand); PBSA panel: Mean 10678, 12.2%. The method, then: (§1) Antibodies were also tested for their ability to block binding of CTLA4 to its cognate ligands CD80 and CD86 by flow cytometry. The plasmid encoding full-length human CTLA4 was transiently expressed in HEK293F cells. Cells were washed with staining buffer (PBSA buffer including 1.76 mM KH₂PO₄, 10.14 mM Na₂HPO₄.12H₂O, 2.68 mM KCl, 136.89 mM NaCl and 1% BSA), and resuspended in staining buffer containing 100 nM test antibodies. […] Cells were washed once, and analyzed by CytoFlex flow cytometry.

In assay [3] the target is T5, full-length human CTLA4 expressed on …. Description: flow cytometry, transfected HEK293F cells, antibody concentration not given. The method, then: The affinities of the antibodies were also assessed against human and mouse CTLA4 transiently expressed on the surface of HEK293F cells (FIG. 2). Briefly, HEK293F cells were transfected with a plasmid expressing full-length human, monkey or mouse CTLA4 from a bicistronic IRES vector also encoding EGFP, and EGFP expression was used to identify the transfected cells. After 48 hours, the mammalian cell suspension (2×10⁵/well) was transferred to an Eppendorf tube, centrifuged, the supernatant was discarded, the cells were resuspended with 1 mL PBSA (to a density is 4×10⁶ cells/mL), and added to a 96 well plate. […] The cells were then washed once prior to analysis by flow cytometry (Beckman® CytoFlex).

Assay [4] has the same target. As to the kind of experiment: flow cytometry blocking: HEK293F cells with human CTLA4, 100 nM antibody, then 100 nM CD80-Fc-Bio (blocked ligand); PBSA panel: Mean 157692, 26.3%. As to the method: as §1
Assay [5] addresses T6, recombinant human CTLA4-Fc (human, UniProt P16410 36-162).
T6 construct: also called human CTLA4 fused with human FC fragment; CTLA4-Fc (Sino Biological, 11159-H03H)
T6 sequence (looked up): T4 sequence (looked up)
Description: ELISA; EC50 divided by the EC50 of TY21580. As to the method:
(§2) Plates were blocked with PBS supplemented with 3% non-fat milk at 37° C. for 1 hour. After washing, 100 μL of 3-fold serial dilutions of antibodies were added to each well. After incubation at 37° C. for 1 hour, plates were washed four times, and 100 μL HRP conjugated anti-human IgG (Fab specific) (1:6000 dilution) was added to each well. Plates were incubated at 37° C. for 1 hour, washed four times, and then 50 μL TMB substrate solution was added to each well, and the plate was incubated at room temperature. […] The EC₅₀ was evaluated by fitting the ELISA data using the asymmetrical sigmoidal (five-parameter logistic equation) model of GraphPad Prism 6 software.

Assay [6] addresses T6, recombinant human CTLA4-Fc. As to the kind of experiment: ELISA; EC50 divided by the EC50 of TY21580. As to the method: as §2
The source holds these as a separate data set.

Assay [7] has as its target T6, recombinant human CTLA4-Fc. As to the kind of experiment: ELISA, coated human CTLA4-Fc (as in Example 8). As to the method:
as §2

For assay [8], the target named is T6, recombinant human CTLA4-Fc. As to the kind of experiment: ELISA, coated human CTLA4-Fc (as in Example 8). The method, then: as §2
This is another data set of the same source.

Assay [9] concerns the target T6, recombinant human CTLA4-Fc. As to the kind of experiment: ELISA on plate-coated recombinant human CTLA4-Fc, detection with HRP anti-human IgG (Fab specific). As to the method:
as §2

We go through eleven molecules from patent US20190241662A1 (ADAGENE, published 2019).

Substitutions are numbered along the chain they refer to. Like-named read-outs stand apart in the source and are kept apart here.

B1: YLGIG105FVGMG (receptor, Homo sapiens, UniProt P16410 36-161, looked up)
CTLA4: KAMHVAQPAVVLASSRGIASFVCEYASPGKATEVRVTVLRQADSQVTEVCAATYMMGNELTFLDDSICTGTSSGNQVNLTIQGLRAMDTGLYICKVELMYPPPYFVGMGNGTQIYVIDPEPCPDSD
Consider B1, for which the binding result with mouse CD86, in the assay with human CD86 and with human CD80 was “binds” throughout.

B2: TY21587 (antibody, V domains shown)
VH: EVQLVESGGGLVQPGGSLRLSCAASGFTFSDYGIHWVRQAPGKGLEWIGEIYHSGSTYYSPSLKSRVTISRDNSKNTLYLQLNSLRAEDTAVYYCARDVAPGSSGYYDGFDFWGQGTLVTVSS
VL: DIQLTQSPSSLSASVGDRVTITCRASQGIGSSLAWYQQKPGKAPKLLIYDASNRATGIPSRFSGSGSGTDFTLTISSLQPEDFATYYCQQYDQWPPWTFGQGTKVEIK
notes: human IgG1 (hIgG1) from Fab hit B15722
In the case of B2, in assay [1], the “IC50 (read off the curve)” value is ~30 nM. In assay [2], the “% of cells in upper right quadrant (CD86-positive) in the presence of the antibody” value is 6.59% and the “Mean of the CD86 binding signal in the presence of the antibody” value was determined as 5710. Moreover, the “% of cells in upper right quadrant (Q2)” value in [3] turned out to be 23.6%. In [4], the “% of cells in upper right quadrant (CD80-positive) in the presence of the antibody” value worked out at 25.8% and the “Mean of the CD80 binding signal in the presence of the antibody” value came out at 85700.

B3: TY22402 (antibody, IgG1, V domains shown)
VH: EVQLVESGGGLVQPGGSLRLSCAASGYSISSGYHWSWIRQAPGKGLEWLARIDWDDDKYYSTSLKSRLTISRDNSKNTLYLQLNSLRAEDTAVYYCARSYVYFDYWGQGTLVTVSS
VL: EVGSYIVHHSDCDAFYPYCDSSGRSAGGGGSPLGLAGSGGSDIQLTQSPSSLSASVGDRVTITCRASQSVRGRFLAWYQQKPGKAPKLLIYDASNRATGIPSRFSGSGSGTDFTLTISSLQPEDFATYYCQQSSSWPPTFGQGTKVEIKR
notes: IgG1; peptide fused to the N-terminus of the light chain of TY21580
Turning to B3, the results for the masking efficiency in assay [5] and in assay [6] were 243 and 554, respectively. Further, the EC50 in assay [7] amounted to 54 nM; in assay [8], 116 nM.

B4: TY22864 (antibody, V domains shown)
VH: B3 VH
VL: DIQLTQSPSSLSASVGDRVTITCRASQSVRGRFLAWYQQKPGKAPKLLIYDASNRATGIPSRFSGSGSGTDFTLTISSLQPEDFATYYCQQSSSWPPTFGQGTKVEIKR
For the molecule B4, the EC50 in assay [8] is 117 nM.

B5: TY22566 (antibody, IgG1, V domains shown)
VH: B3 VH
VL: EVGSYPNPASDCVPYYYACAYSGRSAGGGGSPLGLAGSGGSDIQLTQSPSSLSASVGDRVTITCRASQSVRGRFLAWYQQKPGKAPKLLIYDASNRATGIPSRFSGSGSGTDFTLTISSLQPEDFATYYCQQSSSWPPTFGQGTKVEIKR
notes: IgG1
As to B5, in [9], the “EC50 (read off the curve)” value was ~200 nM.

B6: TY22775 (antibody, V domains shown)
VH: B3 VH
VL: EVGHSDCDAFYPYCDSSGRSAGGGGTPLGLAGSGGSDIQLTQSPSSLSASVGDRVTITCRASQSVRGRFLAWYQQKPGKAPKLLIYDASNRATGIPSRFSGSGSGTDFTLTISSLQPEDFATYYCQQSSSWPPTFGQGTKVEIKR
Consider B6, for which the masking efficiency in assay [5] was 168. For the same molecule, the EC50 in [7] is 37.3 nM.

B7: TY22776 (antibody, V domains shown)
VH: B3 VH
VL: B6 VL with H4S, D8V, A9P, F10Y, P12Y, Y13A, D15A, S16Y
Regarding B7, the masking efficiency in assay [5] came out at 296. Besides, the EC50 in [7] was found to be 65.9 nM.

B8: TY22563 (antibody, IgG1, V domains shown)
VH: B3 VH
VL: B3 VL with I6Y, V7S, H8A, H9Y, S10P, D11A, A14S, F15H, D20Q
notes: IgG1
For B8, in [9], the “EC50 (read off the curve)” value is ~60 nM.

B9: TY22871 (antibody, V domains shown)
VH: B3 VH
VL: B4 VL
Regarding B9, the EC50 in assay [8] came to 88.1 nM.

B10: human CTLA4 mutant ADSQVT42TNDQMT displayed on yeast (receptor)
chain: KAMHVAQPAVVLASSRGIASFVCEYASPGKATEVRVTVLRQTNDQMTEVCAATYMMGNELTFLDDSICTGTSSGNQVNLTIQGLRAMDTGLYICKVELMYPPPYYLGIGNGTQIYVIDPE
notes: also called human CC' loop motif changed to the mouse motif
Turning to B10, the binding result with mouse CD86, in the assay with human CD86 and in the assay with human CD80 was “binds” in each case.

B11: human CTLA4 mutant LGI106AAA displayed on yeast (receptor)
chain: B10 chain with T42A, N43D, D44S, M46V, L106A, G107A, I108A
Turning to B11, the binding result with mouse CD86, with human CD86 and with human CD80 was “binds” each time.
